Positions count from the first letter of the chain named.
Assays:
Experiment in all cases: co-sedimentation
FtsA(E14R) = biological target: T1, FtsA(E14R) (E. coli, UniProt P0ABH0 1-420, E14R)
T1 sequence: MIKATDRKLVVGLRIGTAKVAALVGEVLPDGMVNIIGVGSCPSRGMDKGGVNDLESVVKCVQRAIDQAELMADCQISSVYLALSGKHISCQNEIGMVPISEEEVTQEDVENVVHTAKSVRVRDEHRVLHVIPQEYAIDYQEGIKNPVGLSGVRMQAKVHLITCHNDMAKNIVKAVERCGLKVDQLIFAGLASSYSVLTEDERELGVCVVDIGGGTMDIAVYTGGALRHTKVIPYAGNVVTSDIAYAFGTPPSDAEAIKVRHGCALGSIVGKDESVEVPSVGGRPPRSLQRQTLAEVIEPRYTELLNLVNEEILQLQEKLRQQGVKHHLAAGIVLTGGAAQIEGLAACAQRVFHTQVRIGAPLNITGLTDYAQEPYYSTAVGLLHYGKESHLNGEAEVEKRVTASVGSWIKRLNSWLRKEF

FtsA(S84L) = biological target: T2, FtsA(S84L) (E. coli, UniProt P0ABH0 1-420, S84L)
T2 sequence: T1 sequence with R14E, S84L

FtsA(A188V) = biological target: T3, FtsA(A188V) (E. coli, UniProt P0ABH0 1-420, A188V)
T3 sequence: T1 sequence with R14E, A188V

FtsA(Y375A) = biological target: T4, FtsA(Y375A) (E. coli, UniProt P0ABH0 1-420, Y375A)
T4 sequence: T1 sequence with R14E, Y375A

binding result (FtsA(E14R)): binds
binding result (FtsA(S84L)): binds
binding result (FtsA(A188V)): binds
binding result (FtsA(Y375A)): binds
B1: FtsZ (natural protein)
chain: MFEPMELTNDAVIKVIGVGGGGGNAVEHMVRERIEGVEFFAVNTDAQALRKTAVGQTIQIGSGITKGLGAGANPEVGRNAADEDRDALRAALEGADMVFIAAGMGGGTGTGAAPVVAEVAKDLGILTVAVVTKPFNFEGKKRMAFAEQGITELSKHVDSLITIPNDKLLKVLGRGISLLDAFGAANDVLKGAVQGIAELITRPGLMNVDFADVRTVMSEMGYAMMGSGVASGEDRAEEAAEMAISSPLLEDIDLSGARGVLVNITAGFDLRLDEFETVGNTIRAFASDNATVVIGTSLDPDMNDELRVTVVATGIGMDKRPEITLVTNKQVQQPVMDRYQQHGMAPLTQEQKPVAKVVNDNAPQTAKEPDYLDIPAFLRKQAD
